This note sets out measurements from publication PMC9569306.

Assay [1] deals with ferredoxin-NADP+ oxidoreductase (FNR) from Chlamydomonas reinhardtii (C. reinhardtii) (UniProt P53991).
Assay [2] concerns the target [FeFe]-hydrogenase HydA1 from Chlamydomonas reinhardtii (C. reinhardtii).
Assay [3] has as its target [FeFe]-hydrogenase HydA2 from Chlamydomonas reinhardtii (C. reinhardtii).
The target of assay [4] is ferredoxin-NADP+ oxidoreductase (FNR) from Chlamydomonas reinhardtii (C. reinhardtii) (UniProt P53991). The source holds these as a separate data set.
For assay [5], the target named is [FeFe]-hydrogenase HydA1 from Chlamydomonas reinhardtii (C. reinhardtii). This is another data set of the same source.

UniProt P53991, sequence (P53991 36-354): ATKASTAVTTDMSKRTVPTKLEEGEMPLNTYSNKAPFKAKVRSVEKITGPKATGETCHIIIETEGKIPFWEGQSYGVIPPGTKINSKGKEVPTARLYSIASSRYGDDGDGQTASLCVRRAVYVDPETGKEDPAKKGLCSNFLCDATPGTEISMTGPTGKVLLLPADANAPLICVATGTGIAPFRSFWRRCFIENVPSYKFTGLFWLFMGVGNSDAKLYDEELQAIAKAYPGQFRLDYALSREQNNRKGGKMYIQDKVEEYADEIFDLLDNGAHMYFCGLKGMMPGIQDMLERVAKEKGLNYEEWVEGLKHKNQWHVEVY

With “ferredoxin Fdx10 from Chlamydomonas reinhardtii (natural protein)”, the NADPH-dependent cytochrome c reduction, 40 nM FNR, 5 µM ferredoxin (µM cyt c × min^−1) in assay [1] is 23.3. Besides, in assay [2], the light-dependent H2 production of HydA1 (50 nM, 10 µM ferredoxin) left in the presence of the competitor FNR (50 nM), against the rate without FNR stood at 43%.
For the substance “ferredoxin Fdx8 from Chlamydomonas reinhardtii (natural protein)”, the light-dependent H2 production of HydA1 (50 nM, 10 µM ferredoxin) left in the presence of the competitor FNR (50 nM), against the rate without FNR in assay [2] is 52%.
Consider “ferredoxin Fdx3 from Chlamydomonas reinhardtii (natural protein)”, for which the H2 production rate of HydA2, 50 µM ferredoxin reduced with 10 mM sodium dithionite, against PetF (% of the rate with PetF) in assay [3] was found to be 10. Also, in assay [2], the light-dependent H2 production of HydA1 (50 nM, 10 µM ferredoxin) left in the presence of the competitor FNR (50 nM), against the rate without FNR was determined as 29%.
As to “ferredoxin Fdx2 from Chlamydomonas reinhardtii (natural protein)”, in assay [4], the NADPH-dependent cytochrome c reduction, 40 nM FNR, 5 µM ferredoxin, initial reaction speed (µM cyt c × min^−1) turned out to be 121. Besides, in assay [3], the H2 production rate of HydA2, 50 µM ferredoxin reduced with 10 mM sodium dithionite (µmol H2 × min^−1 × mg^−1) was 12.6. Also, the H2 production rate of HydA1, 50 µM ferredoxin reduced with 10 mM sodium dithionite, against PetF (% of the rate with PetF) in assay [5] came out at 40.
“ferredoxin Fdx11 from Chlamydomonas reinhardtii (natural protein)” showed an NADPH-dependent cytochrome c reduction, 40 nM FNR, 5 µM ferredoxin (µM cyt c × min^−1) in assay [1] of 34.4.
“photosynthetic ferredoxin PetF from Chlamydomonas reinhardtii (from UniProt P07839 33-126) (natural protein)” gave an NADPH-dependent cytochrome c reduction, 40 nM FNR, 5 µM ferredoxin, initial reaction speed (µM cyt c × min^−1) in assay [4] of 84.2. In assay [3], this substance came in with an H2 production rate of HydA2, 50 µM ferredoxin reduced with 10 mM sodium dithionite (µmol H2 × min^−1 × mg^−1) of 63.9. The substance further displayed an H2 production rate of HydA1, 50 µM ferredoxin reduced with 10 mM sodium dithionite (µmol H2 × min^−1 × mg^−1) in assay [5] of 225.
Take “ferredoxin Fdx7 from Chlamydomonas reinhardtii (natural protein)”: the H2 production rate of HydA1, 50 µM ferredoxin reduced with 10 mM sodium dithionite, against PetF (% of the rate with PetF) in assay [5] came out at 14. The light-dependent H2 production of HydA1 (50 nM, 10 µM ferredoxin) left in the presence of the competitor FNR (50 nM), against the rate without FNR in assay [2] came out at 59%.
